Reference: the supplement of paper PMC12783771
± gives the standard deviation of the averaged measurements.

B1: library; numbered along this chain (parent)
chain: MNIQIGELAKRTACPVVTIRFYEQEGLLPPPGRSRGNFRLYGEEHVERLQFIRHCRSLDMPLSDVRTLLSYRKRPDQDCGEVNMLLDEHIRQVESRIGALLELKHHLVELREACSGARPAQSCGILQGLSDCVCDTRGTTAHPSD

Assays:
[1] = variants of: B1; assay: sfGFP reporter fluorescence (15 h) (µM FITC); higher = higher leak; conditions: library round: Round 0; ligand: none
Outline: (§1)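 Values are endpoint sfGFP fluorescence given as µM FITC equivalents. Fluorescence was read at 485/528 nm on a Synergy Neo2, and FITC standard curves were prepared in 50 mM sodium borate pH 8.5. Reactions of 1 μL combined BL21 Star (DE3) PANOx-SP extract, pPbrR-sfGFP reporter, 30 μg/mL GamS and linear PbrR templates (PCR-made, Echo-normalized to 5 nM), with 1 µM lead chloride, 30 µM zinc acetate or no metal, for 15 hr at 30 °C.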

[2] = variants of: B1; assay: sfGFP reporter fluorescence (15 h) (µM FITC); higher = stronger transcriptional activation; conditions: library round: Round 0
Outline: as §1

Variant | sfGFP reporter fluorescence [1] | sfGFP reporter fluorescence ([2]; ligand: 1 µM Pb) | sfGFP reporter fluorescence ([2]; ligand: 30 µM Zn)
T140A | 0.0614 ± 0.0013 | 0.0726 ± 0.0015 | 0.5 ± 0.039
D135E | 0.0579 ± 0.0021 | 0.0724 ± 0.0029 | 0.648 ± 0.055
D135M | 0.0636 ± 0.0018 | 0.09639 ± 0.00052 | 2.2 ± 0.33
D135S | 0.06011 ± 0.00052 | 0.08723 ± 0.00052 | 0.988 ± 0.095
D135R | 0.06267 ± 0.00052 | 0.098 ± 0.0086 | 0.909 ± 0.043
D135V | 0.059 ± 0.001 | 0.081 ± 0.0015 | 1.06 ± 0.13
D135G | 0.0531 | 0.0764 ± 0.0023 | 0.802 ± 0.074
D135Y | 0.0676 ± 0.0039 | 0.116 ± 0.0073 | 1.46 ± 0.17
D135F | 0.0718 ± 0.001 | 0.138 ± 0.0065 | 1.49 ± 0.28
D135T | 0.0608 | 0.088 ± 0.001 | 1.13 ± 0.12
D135H | 0.0665 ± 0.0018 | 0.107 ± 0.0042 | 2.14 ± 0.068
D135N | 0.0588 ± 0.0034 | 0.0847 ± 0.0078 | 1.18 ± 0.32
D135C | 0.0603 ± 0.0013 | 0.0792 ± 0.0036 | 1.73 ± 0.12
D135P | 0.0557 ± 0.0036 | 0.0826 ± 0.0049 | 0.672 ± 0.09
D135L | 0.059 | 0.0898 ± 0.0026 | 1.55 ± 0.24
D135W | 0.0737 ± 0.0036 | 0.146 ± 0.012 | 1.83 ± 0.17
D135Q | 0.0574 ± 0.0023 | 0.0826 ± 0.0023 | 1.28 ± 0.13
D135K | 0.0618 ± 0.0018 | 0.085 ± 0.0015 | 0.962 ± 0.052
D135I | 0.0614 ± 0.0018 | 0.0927 ± 0.0031 | 1.72 ± 0.18
D135A | 0.0733 ± 0.0015 | 0.0834 ± 0.0029 | 0.335 ± 0.0078
Q127A | 0.0724 ± 0.0018 | 0.0793 ± 0.0049 | 0.299 ± 0.047
C134W | 0.145 ± 0.0042 | 0.4695 ± 0.0031 | 1.92 ± 0.047

Variant | sfGFP reporter fluorescence [1] | sfGFP reporter fluorescence ([2]; ligand: 1 µM Pb) | sfGFP reporter fluorescence ([2]; ligand: 30 µM Zn)
C134N | 0.06505 ± 0.00026 | 0.081 ± 0.0031 | 1.39 ± 0.12
C134I | 0.0678 ± 0.001 | 0.113 ± 0.0044 | 1.19 ± 0.11
C134T | 0.06542 ± 0.00026 | 0.0823 ± 0.0049 | 1.21 ± 0.096
C134L | 0.0673 ± 0.00078 | 0.113 ± 0.012 | 1.3 ± 0.054
C134E | 0.0608 ± 0.001 | 0.0651 ± 0.0034 | 0.929 ± 0.095
C134G | 0.0651 ± 0.0029 | 0.0841 ± 0.0013 | 1.35 ± 0.059
C134R | 0.0731 ± 0.0023 | 0.0993 ± 0.0042 | 1.66 ± 0.018
C134S | 0.06597 ± 0.00052 | 0.0814 ± 0.0036 | 1.22 ± 0.1
C134V | 0.0667 ± 0.00052 | 0.0894 ± 0.0047 | 1.13 ± 0.25
C134F | 0.081 ± 0.001 | 0.202 ± 0.01 | 1.32 ± 0.51
C134K | 0.0742 ± 0.00078 | 0.0891 ± 0.0021 | 1.71 ± 0.084
C134Q | 0.0652 | 0.0953 ± 0.001 | 1.33 ± 0.4
C134P | 0.0667 ± 0.00052 | 0.0847 ± 0.011 | 1.54 ± 0.058
C134H | 0.0645 | 0.0913 ± 0.0042 | 1.05 ± 0.012
C134Y | 0.072 ± 0.0034 | 0.154 ± 0.012 | 1.49 ± 0.19
C134M | 0.0693 ± 0.001 | 0.09162 ± 0.00052 | 1.28 ± 0.065
C134D | 0.06157 ± 0.00052 | 0.0684 ± 0.0018 | 1.004 ± 0.008
C134A | 0.0652 ± 0.001 | 0.0821 ± 0.0052 | 0.59 ± 0.049
S130A | 0.0599 ± 0.0013 | 0.0821 ± 0.001 | 0.862 ± 0.14
V133A | 0.06341 ± 0.00052 | 0.0746 ± 0.007 | 0.769 ± 0.021
P143K | 0.0581 ± 0.00078 | 0.07293 ± 0.00052 | 0.889 ± 0.15
P143H | 0.0585 ± 0.0018 | 0.0786 ± 0.0013 | 0.764 ± 0.072

Variant | sfGFP reporter fluorescence [1] | sfGFP reporter fluorescence ([2]; ligand: 1 µM Pb) | sfGFP reporter fluorescence ([2]; ligand: 30 µM Zn)
P143N | 0.0568 ± 0.0015 | 0.0718 ± 0.0057 | 0.865 ± 0.12
P143Q | 0.0566 ± 0.0039 | 0.0735 ± 0.0049 | 0.871 ± 0.098
P143R | 0.05864 ± 0.00052 | 0.0806 ± 0.0052 | 0.983 ± 0.14
P143S | 0.0566 ± 0.0023 | 0.07568 ± 0.00026 | 0.842 ± 0.05
P143W | 0.0588 ± 0.0029 | 0.0861 ± 0.0026 | 0.751 ± 0.11
P143A | 0.0696 ± 0.0015 | 0.0806 ± 0.0026 | 0.4 ± 0.12
P143V | 0.0559 ± 0.0013 | 0.0726 ± 0.0026 | 0.757 ± 0.14
P143D | 0.05754 ± 0.00052 | 0.0733 ± 0.0021 | 0.782 ± 0.024
P143M | 0.05736 ± 0.00026 | 0.0799 ± 0.001 | 0.812 ± 0.12
P143T | 0.05772 ± 0.00026 | 0.0713 ± 0.0065 | 0.821 ± 0.11
P143F | 0.0568 ± 0.0015 | 0.0819 ± 0.0039 | 0.777 ± 0.052
P143E | 0.0563 ± 0.00078 | 0.0696 ± 0.0026 | 0.635 ± 0.04
P143Y | 0.05846 ± 0.00026 | 0.0834 ± 0.0039 | 0.73 ± 0.013
P143I | 0.05534 ± 0.00052 | 0.0768 ± 0.0023 | 0.801 ± 0.12
P143C | 0.0574 ± 0.0013 | 0.07678 ± 0.00026 | 0.495 ± 0.12
P143G | 0.05351 ± 0.00052 | 0.06945 ± 0.00026 | 0.71 ± 0.092
P143L | 0.0563 ± 0.0018 | 0.0782 ± 0.0029 | 0.837 ± 0.046
R137A | 0.0579 ± 0.0021 | 0.06524 ± 0.00052 | 0.454 ± 0.062
L126T | 0.0596 ± 0.0018 | 0.0579 ± 0.0036 | 0.057 ± 0.0029
L126P | 0.05552 ± 0.00026 | 0.0555 ± 0.0023 | 0.05113 ± 0.00026
L126Y | 0.0596 ± 0.0018 | 0.05937 ± 0.00052 | 0.0561 ± 0.0021
L126S | 0.0592 ± 0.0018 | 0.0585 ± 0.00078 | 0.05443 ± 0.00026

Variant | sfGFP reporter fluorescence [1] | sfGFP reporter fluorescence ([2]; ligand: 1 µM Pb) | sfGFP reporter fluorescence ([2]; ligand: 30 µM Zn)
L126R | 0.0619 ± 0.0015 | 0.05992 ± 0.00026 | 0.0572 ± 0.0021
L126W | 0.0586 | 0.0594 ± 0.0026 | 0.0612
L126V | 0.0555 ± 0.0013 | 0.0581 ± 0.00078 | 0.0586
L126N | 0.05901 ± 0.00052 | 0.05882 ± 0.00026 | 0.05333 ± 0.00026
L126F | 0.05699 ± 0.00026 | 0.0583 ± 0.001 | 0.0586 ± 0.0021
L126C | 0.059 ± 0.0036 | 0.0572 ± 0.001 | 0.0563 ± 0.0029
L126E | 0.0594 ± 0.0021 | 0.05772 ± 0.00026 | 0.0557 ± 0.001
L126H | 0.0603 ± 0.0018 | 0.0588 ± 0.00078 | 0.0552 ± 0.006
L126Q | 0.05901 ± 0.00052 | 0.0577 ± 0.0018 | 0.05534 ± 0.00052
L126G | 0.0539 ± 0.0015 | 0.05571 ± 0.00052 | 0.0502 ± 0.0021
L126K | 0.0597 ± 0.0031 | 0.05919 ± 0.00026 | 0.0564 ± 0.001
L126D | 0.0597 ± 0.0021 | 0.0581 ± 0.00078 | 0.0544 ± 0.0029
L126I | 0.0542 ± 0.001 | 0.0568 ± 0.0015 | 0.238 ± 0.012
L126M | 0.0594 ± 0.0015 | 0.0596 ± 0.0018 | 0.22 ± 0.032
D131L | 0.0663 ± 0.0042 | 0.119 ± 0.0091 | 0.994 ± 0.19
D131I | 0.0607 ± 0.0029 | 0.0797 ± 0.0049 | 0.832 ± 0.073
D131E | 0.059 ± 0.0021 | 0.0825 ± 0.0042 | 0.657 ± 0.043
D131P | 0.0546 ± 0.0015 | 0.0619 ± 0.0021 | 0.134 ± 0.015
D131Q | 0.06432 ± 0.00026 | 0.124 ± 0.0029 | 1.26 ± 0.24
D131M | 0.0687 ± 0.0018 | 0.126 ± 0.0073 | 1.17 ± 0.17
D131V | 0.0641 ± 0.001 | 0.0905 ± 0.0078 | 0.984 ± 0.15
D131C | 0.05919 ± 0.00026 | 0.0779 ± 0.0013 | 0.242 ± 0.062
